We go through 30 molecules from patent publication US20250388666A1 (BRIGHAM AND WOMEN S HOSPITAL, published 2025).

First the molecules themselves.
T1: CEACAM1 (Sino Biological) (human, UniProt P13688 35-428, limits assumed)
T1 construct: may be the same as CEACAM1-HIS; also called hCEACAM1; biotinylated soluble CEACAM1
T1 sequence: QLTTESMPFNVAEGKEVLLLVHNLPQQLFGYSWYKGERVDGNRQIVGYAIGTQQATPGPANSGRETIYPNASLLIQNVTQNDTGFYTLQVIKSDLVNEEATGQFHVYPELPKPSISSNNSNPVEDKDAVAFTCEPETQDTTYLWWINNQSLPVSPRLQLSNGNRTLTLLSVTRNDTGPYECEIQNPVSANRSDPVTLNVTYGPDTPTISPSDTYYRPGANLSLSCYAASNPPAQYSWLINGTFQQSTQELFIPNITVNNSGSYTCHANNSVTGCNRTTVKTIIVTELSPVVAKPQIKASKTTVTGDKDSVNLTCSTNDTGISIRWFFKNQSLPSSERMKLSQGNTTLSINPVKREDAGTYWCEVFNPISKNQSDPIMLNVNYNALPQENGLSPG

B1: Parent VH/L16 (antibody, IgG4, V domains shown)
VH: EVQLLESGGGLVQPGGSLRLSCAASGFSFSDYYLYWVRQAPGKGLEWVATISVGGGQTSYADSVKGRFTISRDNSKNTLYLQMNSLRAEDTAMYYCTRGLYYGPAWFAYWGQGTLVTVSS
VL: DIVMTQSPDSLAVSLGERATINCKSSQSLLNSANQKNYLAWYQQKPGQPPKLLIYFASTRESGVPDRFSGSGSGTDFTLTISSLQAEDVAVYYCQSHYPYPFTFGGGTKVEIK
notes: IgG4 S241P, kappa
B2: He1/L18 (antibody, IgG4, V domains shown)
VH: B1 VH with A105S
VL: B1 VL with Y98F
notes: IgG4 S241P, kappa
B3: He3/L3 (antibody, IgG4, V domains shown)
VH: B1 VH with G99A, Y101T, F107L
VL: B1 VL with Y98F, Y100F
notes: IgG4 S241P, kappa
B4: He1/Parent VL (antibody, IgG4, V domains shown)
VH: B1 VH with A105S
VL: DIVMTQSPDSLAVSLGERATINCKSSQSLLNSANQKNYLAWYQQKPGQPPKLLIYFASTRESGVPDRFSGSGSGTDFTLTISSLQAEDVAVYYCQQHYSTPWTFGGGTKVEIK
notes: IgG4 S241P, kappa
B5: He1/L19 (antibody, IgG4, V domains shown)
VH: B1 VH with A105S
VL: B1 VL with Y98I, P99Y, Y100P, P101N
notes: IgG4 S241P, kappa
B6: He3/L4 #1 (antibody, IgG4, V domains shown)
VH: B1 VH with G99A, Y101T, F107L
VL: B1 VL with Y98F, P101Y, F102Y
notes: IgG4 S241P, kappa
B7: He1/L4#2 (antibody, IgG4, V domains shown)
VH: B1 VH with A105S
VL: B1 VL with F102Y
notes: IgG4 S241P, kappa
B8: He1/L17 (antibody, IgG4, V domains shown)
VH: B1 VH with A105S
VL: B1 VL with F102Y
notes: IgG4 S241P, kappa
B9: He1/L5 (antibody, IgG4, V domains shown)
VH: B1 VH with A105S
VL: B1 VL with Y100F, P101A
notes: IgG4 S241P, kappa
B10: He3/L19 (antibody, IgG4, V domains shown)
VH: B1 VH with G99A, Y101T, F107L
VL: B1 VL with Y98I, P99Y, Y100P, P101N
notes: IgG4 S241P, kappa
B11: He3/L16 (antibody, IgG4, V domains shown)
VH: B1 VH with G99A, Y101T, F107L
VL: B1 VL
notes: IgG4 S241P, kappa
B12: He1/L3 (antibody, IgG4, V domains shown)
VH: B1 VH with A105S
VL: B1 VL with Y98F, Y100F
notes: IgG4 S241P, kappa
B13: He1/L1 (antibody, IgG4, V domains shown)
VH: B1 VH with A105S
VL: B1 VL with Y100F, P101Y, F102Y
notes: IgG4 S241P, kappa
B14: He3/L17 (antibody, IgG4, V domains shown)
VH: B1 VH with G99A, Y101T, F107L
VL: B1 VL with F102Y
notes: IgG4 S241P, kappa
B15: He3/L2 (antibody, IgG4, V domains shown)
VH: B1 VH with G99A, Y101T, F107L
VL: B1 VL with Y100F, F102Y
notes: IgG4 S241P, kappa
B16: He4/L3 (antibody, IgG4, V domains shown)
VH: B1 VH with G99A
VL: B1 VL with Y98F, Y100F
notes: IgG4 S241P, kappa
B17: He3/L6 (antibody, IgG4, V domains shown)
VH: B1 VH with G99A, Y101T, F107L
VL: B1 VL with Y100F, P101S
notes: IgG4 S241P, kappa
B18: He1/L6 (antibody, IgG4, V domains shown)
VH: B1 VH with A105S
VL: B1 VL with Y100F, P101S
notes: IgG4 S241P, kappa
B19: He3/Parent VL (antibody, IgG4, V domains shown)
VH: B1 VH with G99A, Y101T, F107L
VL: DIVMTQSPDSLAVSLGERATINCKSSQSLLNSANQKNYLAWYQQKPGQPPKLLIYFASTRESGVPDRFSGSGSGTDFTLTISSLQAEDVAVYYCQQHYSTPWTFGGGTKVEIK
notes: IgG4 S241P, kappa
B20: He1/L20 (antibody, IgG4, V domains shown)
VH: B1 VH with A105S
VL: B1 VL with Y98F, F102L
notes: IgG4 S241P, kappa
B21: He3/L18 (antibody, IgG4, V domains shown)
VH: B1 VH with G99A, Y101T, F107L
VL: B1 VL with Y98F
notes: IgG4 S241P, kappa
B22: He4/L4 #1 (antibody, IgG4, V domains shown)
VH: B1 VH with G99A
VL: B1 VL with Y98F, P101Y, F102Y
notes: IgG4 S241P, kappa
B23: He4/L2 (antibody, IgG4, V domains shown)
VH: B1 VH with G99A
VL: B1 VL with Y100F, F102Y
notes: IgG4 S241P, kappa
B24: He1/L4 #1 (antibody, IgG4, V domains shown)
VH: B1 VH with A105S
VL: B1 VL with Y98F, P101Y, F102Y
notes: IgG4 S241P, kappa
B25: He3/L5 (antibody, IgG4, V domains shown)
VH: B1 VH with G99A, Y101T, F107L
VL: B1 VL with Y100F, P101A
notes: IgG4 S241P, kappa
B26: He1/L16 (antibody, IgG4, V domains shown)
VH: B1 VH with A105S
VL: B1 VL
notes: IgG4 S241P, kappa
B27: He3/L4#2 (antibody, IgG4, V domains shown)
VH: B1 VH with G99A, Y101T, F107L
VL: B1 VL with F102Y
notes: IgG4 S241P, kappa
B28: He4/L1 (antibody, IgG4, V domains shown)
VH: B1 VH with G99A
VL: B1 VL with Y100F, P101Y, F102Y
notes: IgG4 S241P, kappa
B29: He3/L1 (antibody, IgG4, V domains shown)
VH: B1 VH with G99A, Y101T, F107L
VL: B1 VL with Y100F, P101Y, F102Y
notes: IgG4 S241P, kappa
B30: He1/L2 (antibody, IgG4, V domains shown)
VH: B1 VH with A105S
VL: B1 VL with Y100F, F102Y
notes: IgG4 S241P, kappa

Substitutions are numbered along the chain they refer to. Numbers in names are those of the source.

The target in the experiment is T1, CEACAM1 (Sino Biological). In words: SPR single-cycle. The method, then: To assess the binding of the humanized affinity matured IgGs, single cycle kinetics analysis was performed on crude supernatants using a Biacore T200 running Biacore T200 Control Software V2.0.1 and Biacore T200 Evaluation Software V3.0 (Uppsala, Sweden). Antibodies were diluted in HBS-P+ (GE Healthcare) to a final concentration of […]. At the start of each cycle, antibodies were loaded onto Fc2, Fc3 and Fc4 of the Protein A chip (GE Healthcare). IgGs were captured at a flow rate of 10 μl/min to give an immobilization level (RL) of ˜100 RU (a level calculated to obtain an Rmax of ˜50-150 RU once the analyte is bound). The surface was then allowed to stabilize. Single cycle kinetics data was obtained with CEACAM1 as the analyte at a flow rate of […] to minimize any potential mass transfer effects. Multiple repeats with the parent (VH2 N56Q/Vκ4 S27(f)A) antibody were performed to check the stability of the surface and analyte over the kinetic cycles. The signal from the reference channel Fc1 (no antibody) was subtracted from that of Fc2, Fc3 and Fc4 to correct for differences in non-specific binding to the reference surface. A three point, two-fold dilution range from 25 nM to 100 nM CEACAM 1 without regeneration between each concentration was used. The signal from each antibody blank run (no CEACAM1) was subtracted to correct for differences in surface stability. The association phase for the three injections of increasing concentrations of CEACAM1 was monitored for 200 seconds each time and a single dissociation phase was measured for 300 seconds following the last injection of CEACAM1. Regeneration of the Protein A surface was conducted using two injections of 10 mM glycine-HCL pH 1.5 followed by a stabilization period of 240 seconds.
Turning to B1, the affinity, expressed as Kd, was 61 nM and the “fold better than Parent (KD)” value was determined as 2.62 fold.

Regarding B2, binding was characterised by a dissociation constant (Kd) of 326 nM and the “fold better than Parent (KD)” value came out at 1.69 fold.

On to B3, for which the Kd – broadly, a measure of binding affinity in units of concentration – is 163 nM and the “fold better than Parent (KD)” value worked out at 0.98 fold.

Turning to B4, the dissociation constant Kd was 544 nM and the “fold better than Parent (KD)” value amounted to 1.01 fold.

With B5, the Kd stood at 996 nM and the “fold better than Parent (KD)” value was 0.55 fold.

With B6, binding was put at a Kd of 99 nM and the “fold better than Parent (KD)” value worked out at 1.61 fold.

Take B7: binding was characterised by a dissociation constant (Kd) of 301 nM and the “fold better than Parent (KD)” value is 1.83 fold.

For B8, binding was characterised by a dissociation constant (Kd) of 374 nM and the “fold better than Parent (KD)” value is 1.47 fold.

For B9, the affinity, expressed as Kd, was 307 nM and the “fold better than Parent (KD)” value turned out to be 1.8 fold.

For the molecule B10, the affinity, expressed as Kd, was 135 nM and the “fold better than Parent (KD)” value was found to be 1.18 fold.

In the case of B11, binding was characterised by a dissociation constant (Kd) of 72 nM and the “fold better than Parent (KD)” value is 2.22 fold.

As to B12, the Kd was found to be 263 nM and the “fold better than Parent (KD)” value was determined as 2.1 fold.

In the case of B13, binding was characterised by a dissociation constant (Kd) of 568 nM and the “fold better than Parent (KD)” value was 0.97 fold.

On to B14, for which the dissociation constant Kd was 83 nM and the “fold better than Parent (KD)” value worked out at 1.91 fold.

As for B15, binding was put at a Kd of 86 nM and the “fold better than Parent (KD)” value came to 1.85 fold.

As for B16, the Kd amounted to 55 nM and the “fold better than Parent (KD)” value worked out at 2.87 fold.

Take B17: the Kd is 93 nM and the “fold better than Parent (KD)” value came to 1.72 fold.

As to B18, the Kd turned out to be 402 nM and the “fold better than Parent (KD)” value was 1.37 fold.

In the case of B19, the equilibrium dissociation constant (Kd) stood at 78 nM and the “fold better than Parent (KD)” value is 2.03 fold.

For the molecule B20, the Kd was 264 nM and the “fold better than Parent (KD)” value worked out at 2.09 fold.

For B21, the Kd was found to be 82 nM and the “fold better than Parent (KD)” value came out at 1.94 fold.

Turning to B22, the affinity, expressed as Kd, was 83 nM and the “fold better than Parent (KD)” value amounted to 1.91 fold.

In the case of B23, the dissociation constant Kd came to 76 nM and the “fold better than Parent (KD)” value came to 2.09 fold.

In the case of B24, the Kd was determined as 429 nM and the “fold better than Parent (KD)” value is 1.28 fold.

As for B25, the Kd worked out at 95 nM and the “fold better than Parent (KD)” value came to 1.68 fold.

As for B26, the dissociation constant Kd came to 341 nM and the “fold better than Parent (KD)” value was determined as 1.62 fold.

B27: the Kd came out at 130 nM and the “fold better than Parent (KD)” value was determined as 4.24 fold.

For B28, the Kd stood at 64 nM and the “fold better than Parent (KD)” value was found to be 2.49 fold.

As for B29, binding was characterised by a dissociation constant (Kd) of 62 nM and the “fold better than Parent (KD)” value is 2.57 fold.

As for B30, the dissociation constant (Kd) turned out to be 487 nM and the “fold better than Parent (KD)” value is 1.13 fold.
